Article PMC10900128 (Chembiochem : a European journal of chemical biology, 2018)
*: point of attachment. FITC = O=C1OC2(c3ccc(O)cc3Oc3cc(O)ccc32)c2ccc(NC(=S)*)cc21; βAla = NCCC(=O)O

Molecular target: T1, FITC-MLL peptide (SMILES …)
T1 peptide: {FITC-βAla}-DAGNILPSDIMDFVLKNTP-NH2
Experiment: fluorescence polarisation

binding result: binds
B1: GACKIX N627C (GACKIX domain of mouse CBP, residues 586–672, N627C mutant), unlabeled (domain or fragment)
chain: not shown
